Results on one molecule are retold here after patent EP4681731A1 (Bio-Thera Solutions, Ltd., dated 2026).

Test [1] addresses T1, human OX40 on PG-Jurkat-hOX40-NF-kB cells (human, UniProt P43489 29-277).
T1 sequence (looked up): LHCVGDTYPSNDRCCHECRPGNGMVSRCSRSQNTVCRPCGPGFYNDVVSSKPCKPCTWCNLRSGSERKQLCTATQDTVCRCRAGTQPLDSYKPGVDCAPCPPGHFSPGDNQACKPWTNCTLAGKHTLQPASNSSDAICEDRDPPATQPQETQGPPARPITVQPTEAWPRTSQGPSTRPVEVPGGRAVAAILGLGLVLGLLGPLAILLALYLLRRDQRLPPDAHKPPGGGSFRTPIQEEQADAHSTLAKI
Description: cell-based or functional assay.

Test [2] deals with T1, human OX40 on PG-Jurkat-hOX40-NF-kB …. Description: flow cytometry competition against OX40L-mFc on PG-Jurkat-OX40-NF-kB cells; reference antibody KHK4083.
For test [3] the target is unchanged. Description: flow cytometry competition: antibody titrated against OX40L-mFc (1.5 ug/mL) on PG-Jurkat-OX40-NF-kB cells, anti-mFc APC detection. (Flow cytometry measures light scatter and fluorescence of single cells or particles in a stream.)

B1: antibody M-KF (antibody, human IgG1, kappa, V domains shown)
VH: QVQLVESGGGVVQPGESLRLSCAASGFTFSSYGMHWVRQAPGKGLEWVAVIWEDGSNQYYADSVKGRFTISRDNSKNTLYLQMNSLRAEDTAVYYCAKDNQDTSPDVGIDYWGQGTLVTVSS
VL: DIQMTQSPSSLSASVGDRVTITCRASQNISPFLNWYQQKPGKAPKLLIYAAVGLQSGVPSRFSGSGSGTDFTLTISSLQPEDFATYYCQQYTDYPLTFGGGTKVEIKR
notes: Expressed in CHO-BAT-KF cells (alpha-(1,6)-fucosyltransferase knocked out); also called anti-OX40 antibody
In general, IC50 refers to the concentration that inhibits the measured activity by half. A higher IC50 goes with a need for much substance. For the molecule B1, in test [1], the “IC50 of blocking OX40L-mFc-induced NF-kB luciferase reporter signal (RLU) in PG-Jurkat-OX40-NF-kB cells” value came to 0.095 nM and the “fold lower IC50 than antibody KHK4083 in the NF-kB luciferase reporter assay” value was 4.8 fold. For the same molecule, the “fold lower IC50 than antibody KHK4083” value in test [2] was 2.8 fold. The same molecule came in with an IC50 in test [3] of 0.85 nM.
